Experimental data as given in the DeepSol protein solubility set.

Test: soluble on expression in E. coli; label from the status in PepcDB or PDB records

Sequence | soluble on expression in E. coli
MAKKVRSVHECSECGYSSPKWLGRCPECGSWGSMEERTVGESGGAARAAVSGAAPAGLTPTSPAVPIGKIVASQATSISTGIGELDRVLGNGIVPGSVVLMAGEPGVGKSTLLLEVASRWASMKEGDGTRTALYVTAEESAGQVRLRAERTAAVKDTLYLAAESNLDVVFGHVNQVKPSLLIVDSVQTMHAAGVEGVAGGVAQSRAVTAALTTLAKTSGIPILLVGHVTKDGNVAGPRVLEHLVDVVLNFEGDRHSSLRMLRGIKNRFGATDEVGCFEQQSDGIKEVPDPSGLFLSHRGSTPDGTAVTVAMDGVRPLLAEVQSLLVDAPSKNPRRVVTGLDANRVPMVLAVLSARAGRQTQGKDAYVATVGGMKVGEPATDLAVALATASALAKKPLPDKTVVLGEVGLAGEIRRVPNVDRRLAEAERLGYEKAVIPGGSGIKQTSLRVIEASTLAEALAAVSLLEHHHHHH | not soluble
ARIRAPQEATVKEVHDAPAVRGSIIANMLQEHDNPFTLYPYDTNYLIYTQTSDLNKEAIASYDWAENARKDEVKFQLSLAFPLWRGILGPNSVLGASYTQKSWWQLSNSEESSPFRETNYEPQLFLGFATDYRFAGWTLRDVEMGYNHDSNGRSDPTSRSWNRLYTRLMAENGNWLVEVKPWYVVGNTDDNPDITKYMGYYQLKIGYHLGDAVLSAKGQYNWNTGYGGAELGLSYPITKHVRLYTQVYSGYGESLIDYNFNQTRVGVGVMLNDLF | soluble
MTTNYVLRKPWRWLTISKDMMINEQIRAREVRLVGANGDQLGIKSRNDALDLAANLNLDLVLVAPNAKPPVCRIMDYGKFRFEQQKKEKEQRKNQKVISMKEVRLSPTIDEHDFNTKLRNAIKFLEKGDKVKASIRFKGRAITHKEIGQRVLDRFSEACAEVSTIESKPKMEGRSMFLVLAPKNDK | not soluble
MAHHHHHHMDVEERTRRCSSLGLAVRNLPRDTASSFVHKFFEDHVGCVQEVMMHSSRPNQSRNIAAPNTNGVDQGKRGNDDNDPPASFGLSGRRDGNSSSGIAVKTCSNDADGNTLCLVFFSAAECVRLAKLLYMRRPELFNVLGVVDGKELRLTIPSKLIRLSRTAHAHCDDGDNTRSKKSSQGEEDTPKGDAEKNDAGT | not soluble
MYDTEIPYEGKISIYTYFCKECGYRKTEVYSDEKRDPKKITIRIENPDDLRIIVYRSRRADVYIPEMEASIDSAEYSNGEITTIEGIIYRIGEKLDLLAADDQNNKKIASLRKRIDGIINGKFESFTLIIMDESGKSVVHSDKAMVESMD | soluble
GEAQERQTDDGIAAFCRHLGELCDLLNAPYDDVNALAHLARAGELQGTNVNLLLHNAFYHWLGERVQLSVAESRDVAPETIAAHAREAALAQIQSGEYVSQFVTAVAAHATQNVDGVQGPVAPTKQSLFDLPGHFELLGPDEVDGLLKDLASSDCPVGALEKLVADPHLLEDLCFGPTWPQLCDSLGRLVCLLPPSGGTQAAVTGAGHHQHGHTRAAAAVGGGAGRAAASVPEMPKQQQLLLQALNEVVSAVAASSPPHAAELLDGLAPYLTALALRLSLPLPGAGTGHATPVAPDQLQTRVQAGMAGPGAGAGDGGPGGVAVVGTGAVGLLVAVTARDA | not soluble
MSLKIAMIGLGDIAQKAYLPVLAQWPDIELVLCTRNPKVLGTLATRYRVSATCTDYRDVLQYGVDAVMIHAATDVHSTLAAFFLHLGIPTFVDKPLAASAQECENLYELAEKHHQPLYVGFNRRHIPLYNQHLSELAQQECGALRSLRWEKHRHALPGDIRTFVFDDFIHPLDSVNLSRQCNLDDLHLTYHMSEGLLARLDVQWQTGDTLLHASMNRQFGITTEHVTASYDNVAYLFDSFTQGKMWRDNQESRVALKDWTPMLASKGFDAMVQDWLQVAAAGKLPTHIIERNLASHQLAEAICQQITQQVTKGEGGSHHHHHH | soluble
WLDHVQNLVPGLDRQGLLEACEFARESEQRAIAAQNSWAEGTSSFQTGLEIAEILADLKLDQESLVAAVIYRGVREGKITLEAVNKHFGPVVAKLIEGVLRMAAISASLNPRHSMVLGTQAQVENLRKMLVAMVDDVRVALIKLAERTCAIRAVKNADEEKRHRVAREVFDIYAPLAHRLGIGHIKWELEDLSFRYLEPDQYKQIAKLLHERRLDREQYIANVMSQLKEALAATGVQADLSGRAKHIYSIWRKMQRKGLDFSQIYDVRAVRVLVPEMRDCYTALGIVHTLWRHIPKEFDDYIANPKENGYRSLHTAVIGPEGKVLEVQIRTHSMHEEAELGVCAHWRYKGTDVKASSNHYEEKISWLRQVLEWHEELGDIGGLAEQLRVDIEPDRVYVFTPDGHAIDLPKGATPLDFAYRVHTEVGHNCRGAKINGRIVPLNYSLQTGEQVEIITGKHSGPSRDWLNSNLGYVTTSRARAKIVHWFKLQARDQNVAAGKALIERELSRLALPPVDFDRLAEKANVRTAEDMFAALGAGDLRLAHLVNYAQQLVEPDRDSEQLELIPRKPSKIGHGKRGDVQIQGVGNLLTQMAGCCQPLPGDPIVGYITLGRGVTIHRQDCATALQLAGREPERMIQVSWGPEPVRTYPVDIAIRAYDRSGLLRDVSQVLLNERINVLAVNTRSNKEDNTATMQLTIEIPGLDALGRLLARVSQLPNIIEARRNR | not soluble
AHHHHHHGSQHPRKIYFVDTSFLTFLSVKFSKNMERLMENTVFIELLRRGKGVNYALGKNWGIDFVLLIKVSYDVSDEGTLRCEVNALRKVSREFDFKNALLITWNSKRRIEREEL | soluble
GPGSMDPTLKELLHANLEWIFVGGKGGVGKTTTSCALATLFATTPISDAASPGGTRPRRVLLISTDPAHNLSDAFNQRFGPHPTPVKGLEESLAAMEVDPKNFTHGALMSSLTGAKSDGSASSLSAEAEADAAQHTASFARIGAVLKEAARTMPGIDEISVFAEILHYVRTLFYDLLIFDTAPTGHTLRLLALPQTLSSTFDKLMSLEGLAPMIEAASHLIGTNLGALGGACGDTAGSCEQATAAPSLSSAAPGEGSAAAASSQSRWCITADEVRSTALHWRQTMEEVQARFNDPNRTSFVCVCIAEFLSVYETERLVQELMKYNIGCDSIVVNQLVLKPSSEPPCRMCSARQKIQAKYLEQIDLLYEDFHVVKMPLLSDEVRGVPALKKFARFLQEPYSPDTHGYIDVQEPC | not soluble
MSLLLTNHIGYERLGPKKAIIQTEQPHLSSYTAQLICATSEQTVATFAVEEQGKVANWHQGYFYLIDFSSFTDSGDYFLQVEDSRSSTFTVGEHILLNQTLSDVIHYFKSQRCGGVFDQQDRQVPVLNANQTADVHGGWYDASGDVSKYLSHLSYANYLNPQQTPMVVWNILKGLSLLEGSEDIAAFTRTRLIEEALFGADFLVRMQNEKGFFYMTVFDKWSKDTAQREICAYETQLGHKFDDYQAGFRQGGGVAIAALAAASRLGVHGEYDQQKYRNAAENGYWHLKEHNTQYLNDGEENIIDEYCALLASVELFKATKETRYLEESRLWAQRLVARQMSDEQIQHFWSANQDGSRPYFHAAEAGLPTIALCEYLAIEDDSVQTESVKCIVNRACEFEIKISNKVTNPFGYPRQYVKGVNESKRDAFFVAHNNESGYWWQGENARLGSLATMAYLAQPHIASQEIQQQLSVFAQDALNWIVGLNPYDMCMLDGHGRNNPDYLPQYGFFNAKGGVCNGITGGFEDEEDIAFNPPAQKDDMLQNWRWGEQWIPHGAWYLLAIMSQAQHISQLATSKNIKEGHHHHHH | soluble
MSLTTKYIFVTGGVVSSLGKGITAASLGRLLKNRGMKVTIQKFDPYINVDPGTMSPYQHGEVFVTDDGAETDLDLGHYERFIDINLNKNSNVTTGKIYSSVLKKERRGDYLGGTVQVIPHVTNEIKERVFRAGRETNADVVITEIGGTVGDIESLPFLEAIRQIKSDIGVDNVMYIHCTLIPYLAAAGEMKSKPTQHSVKELRSLGIQPNVIVVRTEKPVPEEMKEKIALFCDIRKDSVIEARDADTLYEVPLDLQAQNLDEIVCDHLNLSCQEADMTEWKSLVEKVKNLSGLVKIALVGKYVALPDAYLSVAEALRHAGYAFDADINIKWVDSEDVTAENVAEQLQGVDGILVPGGFGDRGIEGKIEAIRYAREQKIPFLGICLGMQLASIEFARNVLGLEGAHSAEINPDTPHPIIDLLPEQKDVEDMGGTLRLGLYPCKLKNGTLAQSAYNDQVIYERHRHRYEFNNQYREQMEAKGFMFSGTSPDGRLVEIVELGDHPFFIASQFHPEFVSRPTRPQPLFREFIQASLRKEGHHHHHH | soluble
GPGSMRRLFPTAKLLGSTTGIRLASMKSSDKERLERLVEEVNGIKSKLKVLEESKAANGLVDLYASRKMKRLDIKRILGIFNDRAYHAPIFCHKALPIILAHFITGLDRLPSGLNAMPSILAVRATLLRSFQKLINCKIPATDDQVQHFRRVLEDIDEEHAERNLLQTMAFGILELKEYVSSHRRALVDLKKTSERWASIPMTEENVLTYAEIQDIQAPLDSVNRCMITYNFISRMFLNHDPDMTMSSNPRRIGMVDLEMNLEHVVRNAVDEAKQICTDHYGDCPDTEFELTSDTKAFRFPYMSTTIRYIILELMKNAFRATVDSHMKRNDVGMVTCADMPPVRVLINLQEGTEHACICISDEGMGMTDEALTMAMAYSYTSVSKPALQLGESGERCASTAPSPLAGYGYGLPMSRVYAQSLGGDLLLQTMEGYGTRAYYYIKIADAQPLCDEETK | soluble
GPGSMAAVPPQKAANIAQRLQPQCATVGPATLRMSAGKSLKIRENAMYSNMPPPTAFTTPCSATNAGPVMEVCVPFIVMTPIAMPRGTETEKIIVITTSSMTLMEASTSREPSAIPSNSWWNDNATSSVLMSLSLAIPTERPKNTLCEAKPNSIKIAAATRLALFR | not soluble
EGSARFMPELTARAGFAFIPSIAIIKNKVFEPDDPQELEAYQSVLGYTPGIRGNLKVSSFSGHMLADYHPFKNAFRVTAGLYFNRPQINAKVQLINQNTGQSIMNDQSTLNPNNMPVITIKDKDNPADKVSIQPSSTAEVEASVHLGRTVQPYIGIGYGFAVPVSRVSFFADLGMLFSGKAQISSPNVIAGDPNLLIDFSEDAQEAVYSTQILPVLNIGVSIRLF | not soluble
MSANDRRDRRVRVAVVFGGRSNEHAISCVSAGSILRNLDSRRFDVIAVGITPAGSWVLTDANPDALTITNRELPQVKSGSGTELALPADPRRGGQLVSLPPGAGEVLESVDVVFPVLHGPYGEDGTIQGLLELAGVPYVGAGVLASAVGMDKEFTKKLLAADGLPVGAYAVLRPPRSTLHRQECERLGLPVFVKPARGGSSIGVSRVSSWDQLPAAVARARRHDPKVIVEAAISGRELECGVLEMPDGTLEASTLGEIRVAGVRGREDSFYDFATKYLDDAAELDVPAKVDDQVAEAIRQLAIRAFAAIDCRGLARVDFFLTDDGPVINEINTMPGFTTISMYPRMWAASGVDYPTLLATMIETTLARGVGLH | soluble
MSETGTRISPLFSHRRWKLQVLDLQDVCENFWMVWSEAMARGCFLNAKRNKKPVQDCPRMRGRQPLTVFVELWLKNRTLDEHLTCLLLWVKQRKDLLHLCCKKLKILGMPFRNIRSILKMVNLDCIQEVEVNCKWVLPILTQFTPYLGHMRNLQKLVLSHMDVSRYVSPEQKKEIVTQFTTQFLKLHCLQKLYMNSVSFLEGHLDQLLSCLKTSLKVLTITNCVLLESDLKHLSQCPSISQLKTLDLSGIRLTNYSLVPLQILLEKVAATLEYLDLDDCGIIDSQVNAILPALSRCFELNTFSFCGNPISMATLENLLSHTIILKNLCLELYPAPRESYGADGTLCWSRFTQIRAELMKRVRDLRHPKRILFGTDYCPDCGNRSFYDLEADQYCC | not soluble
TTTLAFRFQGGIIVAVDSRATAGNWVASQTVKRVIEINPFLLGTMAGGAADCQFWETWLGSQCRLHELREKERISVAAASKILSNLVYQYKGAGLSMGTMICGYTRKEGPTIYYVDSDGTRLKGDIFCVGSGQTFAYGVLDSNYKWDLSVEDALYLGKRSILAAAHRDAYSGGSVNLYHVTEDGWIYHGNHDVGELFWKVKEEEGSFNNVIG | soluble
VILKEEFRGVIIKQGCLLKQGHRRKNWKVRKFILREDPAYLHYYDPAGAEDPLGAIHLRGCVVTSVESNSNGRKSEEENLFEIITADEVHYFLQAATPKERTEWIKAIQMASRTGK | soluble
